The record followed here is US20200165312A1, “COSMETIC COMPOSITION FOR IMPROVING SKIN CONDITIONS COMPRISING FUSION PROTEIN INCLUDING SKIN PENETRATION ENHANCING PEPTIDE” (LG HOUSEHOLD & HEALTH CARE LTD., priority 2017, published 2020).

One assay concerns dermal fibroblasts. Description: Hyaluronic acid (HA) production in dermal fibroblasts (ELISA). Format: cell-based, human. As to conditions: two days. As to the method: Specifically, dermal fibroblasts were inoculated onto a 24-well plate and cultured for 24 hours to obtain cultures having a saturation degree of 70 to 80%. The cultures were washed with PBS and cultured in a serum-free DMEM medium including 10 ng/mL T-PDGFa or PDGFa for two days. A supernatant was obtained therefrom and the amount of hyaluronic acid (HA) produced and released in the culture solution was quantitively analyzed using an ELISA kit (R&D Systems) (Table 5).
Specifically, dermal fibroblasts were inoculated onto a 24-well plate and cultured for 24 hours to obtain cultures having a saturation degree of 70 to 80%. […] A supernatant was obtained therefrom and the amount of hyaluronic acid (HA) produced and released in the culture solution was quantitively analyzed using an ELISA kit (R&D Systems) (Table 9).
On the technique in general: An ELISA detects its analyte on a solid surface through an enzyme-linked reagent.

Assay [1] concerns human umbilical vein endothelial cells. Description: Endothelial cell proliferation, Cell Counter Kit-8. Format: cell-based. As to the method: Specifically, human umbilical vein endothelial cells were inoculated onto a 96-well plate and cultured for 24 hours to obtain cultures at a density of 5,000 cells per well. The cultures were washed with PBS and cultured in a serum-free M199 medium for 16 hours. […] The cultures were obtained therefrom and a difference between proliferated amounts of cells was quantitively analyzed using the Cell Counter Kit-8 (Dojindo).
Specifically, human umbilical vein endothelial cells were inoculated onto a 96-well plate and cultured for 24 hours to obtain cultures at a density of 5,000 cells per well. The cultures were washed with PBS and cultured in a serum-free M199 medium for 16 hours. The cells were washed with PBS again and cultured in a serum-free M199 medium supplemented with 100 ng/mL T-Tβ4 or Tβ4 for one day. The cultures were obtained therefrom and a difference between proliferated amounts of cells was quantitively analyzed using the Cell Counter Kit-8 (Dojindo). Here, human umbilical vein endothelial cells cultured in a serum-free M199 medium without T-Tβ4 or Tβ4 were used as a control (Table 22).

The next assay deals with dermal papilla cells. As to the kind of experiment: Hair follicle stem cell proliferation: dermal papilla cells, Cell Counter Kit-8. Format: cell-based. As to conditions: for Proliferation (%): one day, control = 100; for cell proliferation effect compared with the unfused protein: dermal papilla cells. The protocol: (§1) Specifically, dermal papilla cells were inoculated onto a 96-well plate and cultured for 24 hours to obtain cultures at a density of 6,000 cells per well. The cultures were washed with PBS and cultured in a serum-free DMEM medium for one day. The cells were washed with PBS again and cultured in a serum-free DMEM medium supplemented with 1 ng/mL T-PDGFa or PDGFa for one day. The cultures were obtained therefrom and a difference between proliferated amounts of cells was quantitively analyzed using the Cell Counter Kit-8 (Dojindo). Here, dermal papilla cells cultured in a serum-free DMEM medium without T-PDGFa or PDGFa were used as a control (Table 6).
Specifically, dermal papilla cells were inoculated onto a 96-well plate and cultured for 24 hours to obtain cultures at a density of 6,000 cells per well. The cultures were washed with PBS and cultured in a serum-free DMEM medium for one day. […] The cultures were obtained therefrom and a difference between proliferated amounts of cells was quantitively analyzed using the Cell Counter Kit-8 (Dojindo).
as §1, with “T-IGF-1” for “T-PDGFa”, “IGF-1” for “PDGFa”, “15).” for “6).”
as §1, with “10” for “1”, “T-KGF” for “T-PDGFa”, “KGF” for “PDGFa”, “19).” for “6).”
as §1, with “10” for “1”, “T-Tβ4” for “T-PDGFa”, “Tβ4” for “PDGFa”, “23).” for “6).”

Another assay concerns skin keratinocytes. As to the kind of experiment: Keratinocyte growth (skin barrier strengthening), Cell Counter Kit-8. Type of assay: cell-based. To be noted: for Production (%) (keratinocyte growth): 100 ng/mL T-KGF or KGF, one day, control = 100. As to the method:
Specifically, skin keratinocytes were cultured in a 96-well plate for one day to obtain cultures at a density of 6,000 cells per well. The cultures were washed with PBS and cultured in a serum-free DMEM medium for one day. The cells were washed with PBS again and cultured in a serum-free DMEM medium supplemented with 100 ng/mL T-IGF-1 or IGF-1 for one day. The cultures were obtained therefrom and a difference between proliferated amounts of cells was quantitively analyzed using the Cell Counter Kit-8 (Dojindo). Here, skin keratinocytes cultured in a serum-free DMEM medium without T-IGF-1 or IGF-1 were used as a control (Table 14).
Specifically, skin keratinocytes were cultured in a 96-well plate for 24 hours to obtain cultures at a density of 6,000 cells per well.
The cultures were washed with PBS and cultured in a serum-free DMEM medium for one day. The cells were washed with PBS again and cultured in a serum-free DMEM medium supplemented with 100 ng/mL T-KGF or KGF for one day. The cultures were obtained therefrom and a difference between proliferated amounts of cells was quantitively analyzed using the Cell Counter Kit-8 (Dojindo). Here, skin keratinocytes cultured in a serum-free DMEM medium without T-KGF or KGF were used as a control (Table 18).

B1: T-VEGF: SEQ ID NO: 1 peptide C-terminal linked to N-terminal of VEGF via GG linker (protein)
chain: NGSLNTHLAPILGGAPMAEGGGQNHHEVVKFMDVYQRSYCHPIETLVDIFQEYPDEIEYIFKPSCVPLMRCGGCCNDEGLECVPTEESNITMQIMRIKPHQGQHIGEMSFLQHNKCECRPKKDRARQENPCGPCSERRKHLFVQDPQTCKCSCKNTDSRCKARQLELNERTCRCDKPRR
modifications: Synthetic Fusion protein of T-VEGF
With B1, in the assay with dermal fibroblasts (10 ng/mL T-VEGF or VEGF, control = 100), the “Production (%) of hyaluronic acid (HA)” value was 230 ± 18%. For the same molecule, the “hyaluronic acid producing effect compared with the unfused protein” value in the assay with dermal fibroblasts (10 ng/mL) is “same level”. Further, the “Proliferation (%)” value is 185 ± 15% in assay [1] (100 ng/mL T-VEGF or VEGF, serum-free M199, one day, control = 100) and 310 ± 20% in the assay with dermal papilla cells (1 ng/mL T-VEGF or VEGF). Further, the “cell proliferation effect compared with the unfused protein” value in assay [1] (human umbilical vein endothelial cells, 100 ng/mL) is reported as “same level”; with dermal papilla cells it was “same level”.

B2: KGF: keratinocyte growth factor having an amino acid sequence of SEQ ID NO: 44 (protein)
chain: CNDMTPEQMATNVNCSSPERHTRSYDYMEGGDIRVRRLFCRTQWYLRIDKRGKVKGTQEMKNNYNIMEIRTVAVGIVAIKGVESEFYLAMNKEGKLYAKKECNEDCNFKELILENHYNTYASAKWTHNGGEMFVALNQKGIPVRGKKTKKEQKTAHFLPMAIT
modifications: Human KGF
Take B2: in the assay with skin keratinocytes, the “Production (%) (keratinocyte growth)” value worked out at 620 ± 25%. The “Proliferation (%)” value in the assay with dermal papilla cells (10 ng/mL T-KGF or KGF) came out at 360 ± 35%.

B3: T-KGF: SEQ ID NO: 1 peptide C-terminal linked to N-terminal of KGF via GG linker (protein)
chain: NGSLNTHLAPILGGCNDMTPEQMATNVNCSSPERHTRSYDYMEGGDIRVRRLFCRTQWYLRIDKRGKVKGTQEMKNNYNIMEIRTVAVGIVAIKGVESEFYLAMNKEGKLYAKKECNEDCNFKELILENHYNTYASAKWTHNGGEMFVALNQKGIPVRGKKTKKEQKTAHFLPMAIT
modifications: Synthetic Fusion protein of T-KGF
B3: the “Production (%) (keratinocyte growth)” value with skin keratinocytes is listed as 590 ± 27%. In addition, the “effect in keratinocyte growth test compared with the unfused protein” value in the assay on skin keratinocytes (skin keratinocytes, 100 ng/mL) is “same level”. Also, in the assay on dermal papilla cells (10 ng/mL T-KGF or KGF), the “Proliferation (%)” value is reported as 270 ± 15%. The “cell proliferation effect compared with the unfused protein” value in the assay on dermal papilla cells is listed as “same level”.
